Reference: publication PMC7182499 (Journal of inherited metabolic disease, 2019)
Positions count from the first letter of the chain named. Names and notes keep the numbering of the source.

T1: ALDH7A1 (aldehyde dehydrogenase 7A1; antiquitin) (Homo sapiens, UniProt P49419, E427Q)
T1 sequence (P49419 29-539 E427Q): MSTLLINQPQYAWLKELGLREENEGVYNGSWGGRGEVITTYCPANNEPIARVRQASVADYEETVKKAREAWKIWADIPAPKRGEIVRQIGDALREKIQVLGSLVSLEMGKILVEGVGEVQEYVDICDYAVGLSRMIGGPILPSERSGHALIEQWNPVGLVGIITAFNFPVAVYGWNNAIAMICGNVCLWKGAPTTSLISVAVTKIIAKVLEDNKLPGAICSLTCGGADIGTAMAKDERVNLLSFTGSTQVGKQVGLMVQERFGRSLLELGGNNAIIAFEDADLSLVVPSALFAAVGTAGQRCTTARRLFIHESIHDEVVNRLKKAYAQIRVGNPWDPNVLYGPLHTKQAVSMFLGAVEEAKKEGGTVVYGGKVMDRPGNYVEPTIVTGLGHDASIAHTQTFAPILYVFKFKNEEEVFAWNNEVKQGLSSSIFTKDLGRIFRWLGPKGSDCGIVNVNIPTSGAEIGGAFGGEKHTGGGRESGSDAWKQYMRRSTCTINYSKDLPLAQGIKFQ

T2: ALDH7A1 (aldehyde dehydrogenase 7A1; antiquitin) (Homo sapiens, UniProt P49419, E427G)
T2 sequence (P49419 29-539 E427G): T1 sequence (P49419 29-539 E427Q) with Q399G

B1: wild-type ALDH7A1 (aldehyde dehydrogenase 7A1) (enzyme, human, UniProt P49419 27-539, looked up)
chain: AFMSTLLINQPQYAWLKELGLREENEGVYNGSWGGRGEVITTYCPANNEPIARVRQASVADYEETVKKAREAWKIWADIPAPKRGEIVRQIGDALREKIQVLGSLVSLEMGKILVEGVGEVQEYVDICDYAVGLSRMIGGPILPSERSGHALIEQWNPVGLVGIITAFNFPVAVYGWNNAIAMICGNVCLWKGAPTTSLISVAVTKIIAKVLEDNKLPGAICSLTCGGADIGTAMAKDERVNLLSFTGSTQVGKQVGLMVQERFGRSLLELGGNNAIIAFEDADLSLVVPSALFAAVGTAGQRCTTARRLFIHESIHDEVVNRLKKAYAQIRVGNPWDPNVLYGPLHTKQAVSMFLGAVEEAKKEGGTVVYGGKVMDRPGNYVEPTIVTGLGHDASIAHTETFAPILYVFKFKNEEEVFAWNNEVKQGLSSSIFTKDLGRIFRWLGPKGSDCGIVNVNIPTSGAEIGGAFGGEKHTGGGRESGSDAWKQYMRRSTCTINYSKDLPLAQGIKFQ
B2: ALDH7A1 E427G (Glu427Gly) (enzyme, human, UniProt P49419 27-539, looked up)
chain: B1 chain with E401G
B3: ALDH7A1 E427D (Glu427Asp) (enzyme, human, UniProt P49419 27-539, looked up)
chain: B1 chain with E401D
B4: ALDH7A1 E427Q (Glu427Gln) (enzyme, human, UniProt P49419 27-539, looked up)
chain: B1 chain with E401Q

What was measured:
[1] = biological target: T1, ALDH7A1 (aldehyde dehydrogenase 7A1; antiquitin); test: X-ray crystal structure, […] Å, co-crystallisation; format: binding; settings: 15 mM NAD+; pH 6.2; ADP portion ordered, NMN disordered
[2] = biological target: T2, ALDH7A1 (aldehyde dehydrogenase 7A1; antiquitin); test: X-ray crystal structure, […] Å, co-crystallisation; format: binding; settings: 5 mM NAD+; pH 6.5; NMN disordered
SAXS = biological target: the molecule itself; test: SAXS
crystal structure = biological target: the molecule itself; test: crystal structure

Molecule	stoichiometry N (crystal structure)	other results
NC(=O)c1ccc[n+]([C@@H]2O[C@H](COP(=O)(O)OP(=O)(O)OC[C@H]3O[C@@H](n4cnc5c(N)ncnc54)[C@H](O)[C@@H]3O)[C@@H](O)[C@H]2O)c1 [NAD^+]	–	X-ray crystal structure, 2.06 Å, co-crystallisation [1]: The crystal structure of E427Q complexed with NAD^+ was determined in space group C2; X-ray crystal structure, 2.15 Å, co-crystallisation [2]: the NMN of NAD^+ bound to E427G is disordered
B1	–	stoichiometry N (SAXS): 4
B2	4	–
B3	4	–
B4	4	–
